Measured values taken from publication PMC7717681, “Biochemical and structural characterisation of a protozoan beta-carbonic anhydrase from Trichomonas vaginalis” (Journal of Enzyme Inhibition and Medicinal Chemistry, 2020).

Target: the molecule itself
Assay: SEC-MALS; SEC combined with static and dynamic light scattering (SEC-SLS/DLS, right-angle light scattering) and a SEC standard curve; Superdex 200 5/150, 50 mM NaH2PO4, 500 mM NaCl, pH 8, 20 °C; after His-tag removal

B1: beta-carbonic anhydrase from Trichomonas vaginalis (TvaCA1) (enzyme)
chain: MSQLELITSANQAFLEANPELTKLNKAPQRHIAIVTCMDTRLVNFAEDAIGVKRGEATVIKAAGNGIWTTGLSDIVVSLLVSIYELGVQEIFIMGHECCGMTHASTDSLGAQMLKSGIKPEDIEKFKSDLSKWVDDFKDPIDNIKNSVRCVRENPLIPKNIPIHGLLIHPDTGKVTTIINGY
notes: TvaCA1, beta-carbonic anhydrase of Trichomonas vaginalis, gene TVAG_005270, UniProt A2ENQ8; Zinc metalloenzyme; The His-tag was removed by thrombin at an LVPRGS site; also called β-CA from T. vaginalis; source: E. coli BL21 Star (DE3), purified (Ni2+-NTA, His-tag removed by thrombin, second Ni2+-NTA; SEC in addition for crystallisation); not shown: His6, N-terminal, cleaved
For B1, the “stoichiometry N” value was 2.
